Here are results for one substance from paper PMC5700101.

In this assay the target is PBD–GFP (PBD of Polo, amino acids 350–576, C-terminally fused to GFP10) (UniProt P52304). The assay is described as follows: BRET. Particulars: live HEK293T cells; fixed amount of Luc-KD vector, increasing PBD–GFP vector; Map205 fragment co-transfected; p-value < 0.0001; parent: 0.197.

As to “Luc-KD (KD–IDL of Polo, amino acids 1–349, N-terminally fused to RLucII), KD^WT (from UniProt P52304) NLS7A”, the other: BRET50 turned out to be 2.49 GFP/Luc.
